Measurements as given in publication PMC3891507 (2014).

How the values were obtained:
[1] = molecular target: Laminin 111 (Mus musculus, UniProt P19137, shortened LARGE-glycan (LargeKD myotubes), Ca2+); test: solid-phase binding assay
[2] = molecular target: Laminin 111 (Mus musculus, UniProt P19137, LARGE-glycan (control myotubes), Ca2+); test: solid-phase binding assay

B1: alpha-dystroglycan (protein)
chain: HWPSEPSEAVRDWKNQLEASMHSVLSDFQEAVPTVVGIPDGTAVVGRSFRVSIPTDLIASSGEIIKVSAAGKEALPSWLHWDPHSHILEGLPLDTDKGVHYISVSAARLGANGSHVPQTSSVFSIEVYPEDHNEPQSVRAASSDPGEVVPSACAADEPVTVLTVILDADLTKMTPKQRIDLLNRMQSFSEVELHNMKLVPVVNNRLFDMSAFMAGPGNAKKVVENGALLSWKLGCSLNQNSVPDIRGVETPAREGAMSAQLGYPVVGWHIANKKPTLPKRLRRQIHATPTPVTAIGPPTTAIQEPPSRIVPTPTSPAIAPPTETMAPPVRDPVPGKPTVTIRTRGAIIQTPTLGPIQPTRVSEAGTTVPGQIRPTLTIPGYVEPTAVITPPTTTTKKPRVSTPKPATPSTDSSTTTTRRPTKKPRTPRPVPRVTTKAPITRLETASPPTRIRTTTSGVPRGGEPNQRPELKNHIDRVDAWVGTYFEVKIPSDTFYDNEDTTTDKLKLTLKLREQQLVGEKSWVQFNSNSQLMYGLPDSSHVGKHEYFMHATDKGGLSAVDAFEIHVHKRPQGDKAPARFKARLAGDPAPVVNDIHKKIALVKKLAFAFGDRNCSSITLQNITRG
[1]
  Kd: 4.75 nM
[2]
  Kd: 2.93 nM
